Experimental findings from patent US20150315275A1 (AstraZeneca / MedImmune, published 2015) are described below.

Assay [1] deals with T1, B7-H4-Ig fusion protein (human).
T1 construct: also called human B7-H4 Ig
The assay is described as follows: antibody captured on B7-H4-Ig fusion protein, detected with biotin-anti-mouse IgG1 and Europium-Streptavidin. The text has this:
Serum was collected for initial evaluation of PK (peak and trough post 4th dose). Antibody was captured from serum with a B7-H4-Ig fusion protein, and detected with biotin-anti-mouse IgG1 (6H3.mIgG1) or IgG2a (6H3.mIgG2a) and detected with Europium-Streptavidin.

Assay [2] addresses T2, B7-H4 fusion protein Variant 1: IgV residues 29-149 of SEQ ID NO:1 (human, UniProt Q7Z7D3 29-149).
T2 construct: Human IgG1 Fc fusion protein; also called IgV only; not shown: human IgG1 Fc
T2 chain: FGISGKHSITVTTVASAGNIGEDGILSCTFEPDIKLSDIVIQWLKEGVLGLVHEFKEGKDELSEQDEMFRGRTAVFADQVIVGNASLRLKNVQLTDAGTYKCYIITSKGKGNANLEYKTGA
Description: ELISA, B7-H4 Fc fusion protein immobilized at 1 µg/ml, mouse antibody titrated, anti-mouse Ig HRP. The protocol:
(§1) 100 μl 1 μg/ml human IgG1 Fc fusion proteins diluted in PBS consisting of different segments of B7-H4 Extracellular domains were immobilized on flat bottom 96 well plates (Costar 9017) overnight at 4° C. […] Plates were washed twice with PBS+0.1% PS-20 and blocked with 200 μl/well PBS 10% FBS at RT for 1 hr. A titration of mouse anti-human B7-H4 antibodies 2H9, 2D1, 2E11, 6H3, 8E11 or H74 diluted in PBS 10% FBS were added to the plates and incubated at RT for 1 hr. Plates were washed three times and 100 μl 1 μg/ml anti-mouse Ig HRP (Sigma) was added to each well and incubated at RT for 1 hr. Plates were washed six times and 100 μl TMB substrate (SurModics) was added to each well for 5-15 mins. 100 μl stop solution (0.1M Sulfuric acid) was added to each well. Plates were read at Absorbance 450 nm by PerkinElmer EnVision 2104 Multilabel Reader.
Background: In an ELISA, binding on a coated surface is turned into a signal by an enzyme label.

Assay [3] has as its target T3, B7-H4 fusion protein Variant 3: IgV residues 29-158 of SEQ ID NO:1 (human, UniProt Q7Z7D3 29-158).
T3 construct: Human IgG1 Fc fusion protein; also called IgV only; not shown: human IgG1 Fc
T3 chain: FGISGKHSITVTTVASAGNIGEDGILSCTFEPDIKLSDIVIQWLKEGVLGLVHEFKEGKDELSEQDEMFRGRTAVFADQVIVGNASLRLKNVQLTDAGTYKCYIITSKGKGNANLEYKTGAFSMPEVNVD
The assay is described as above. The protocol: as §1

Assay [4] addresses T4, B7-H4 fusion protein Variant 2: IgV residues 29-154 of SEQ ID NO:1 (human, UniProt Q7Z7D3 29-154).
T4 construct: Human IgG1 Fc fusion protein; also called IgV only; not shown: human IgG1 Fc
T4 chain: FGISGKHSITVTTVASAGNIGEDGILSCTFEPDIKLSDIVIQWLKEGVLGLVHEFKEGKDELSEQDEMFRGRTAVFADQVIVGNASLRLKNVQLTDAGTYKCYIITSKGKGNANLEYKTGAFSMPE
The description is as above. As to the method:
as §1

In assay [5] the target is T1, B7-H4-Ig fusion protein. Description: ELISA, B7-H4 Ig coated on the plate, purified antibody, HRP goat anti-mouse. The protocol:
B7-H4 Ig was coated onto microtiter plates, washed, blocked, and washed again. Varying concentrations of anti-B7-H4 antibodies were allowed to bind. Purified proteins were used for clones H74, 6H3, and 8E11. Conditioned media from hybridomas 2D1, 2H9, and 2E11 were used. Following incubation, the plates were washed. Bound anti-B7-H4 was detected using HRP-conjugated goat anti-mouse (Jackson ImmunoResearch).

Assay [6] has as its target T5, human B7-H4 expressed on cells (human, UniProt Q7Z7D3 25-282).
T5 construct: the cell line is named under assay or readout; also called full length human B7-H4 on HEK293 cells; 293T.hB7-H4
T5 sequence: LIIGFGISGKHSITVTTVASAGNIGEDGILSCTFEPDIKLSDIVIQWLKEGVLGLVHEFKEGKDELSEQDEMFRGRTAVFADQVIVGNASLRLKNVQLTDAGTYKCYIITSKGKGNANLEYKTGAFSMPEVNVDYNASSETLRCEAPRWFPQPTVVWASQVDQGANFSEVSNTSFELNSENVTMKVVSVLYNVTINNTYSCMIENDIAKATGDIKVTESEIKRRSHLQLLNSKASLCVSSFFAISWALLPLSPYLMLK
Description: flow cytometry on HEK293 cells expressing full length human B7-H4, labelled secondary antibody, 20 min at 4 C. As to the method: In order to determine the kinetics of binding of antibody 6H3 binding to B7-H4, with HEK293 cells that expressed full length human B7-H4 were incubated (for 20 minutes at 4° C. with 1×10⁵ in 200 μl wells) in the presence of varying concentrations of antibody (0, 0.01 ng, 0.03 ng, 0.1 ng, 0.3 ng, 1 ng, 10 ng, 30 ng, 100 ng, 300 ng, 1000 ng, 3000 ng, 10000 ng, or 30000 ng) in RPMI complete media (10% FBS). Binding was analyzed (FACS Canto II) using a FACS staining plate after incubation with a secondary antibody (anti-human Ig PE, anti-mouse Ig APC, anti-hamster Ig PE or anti-rat Ig PE).
On the technique in general: Flow cytometry measures light scatter and fluorescence of single cells or particles in a stream.

T1 sequence (chain, as listed by the source limits assumed): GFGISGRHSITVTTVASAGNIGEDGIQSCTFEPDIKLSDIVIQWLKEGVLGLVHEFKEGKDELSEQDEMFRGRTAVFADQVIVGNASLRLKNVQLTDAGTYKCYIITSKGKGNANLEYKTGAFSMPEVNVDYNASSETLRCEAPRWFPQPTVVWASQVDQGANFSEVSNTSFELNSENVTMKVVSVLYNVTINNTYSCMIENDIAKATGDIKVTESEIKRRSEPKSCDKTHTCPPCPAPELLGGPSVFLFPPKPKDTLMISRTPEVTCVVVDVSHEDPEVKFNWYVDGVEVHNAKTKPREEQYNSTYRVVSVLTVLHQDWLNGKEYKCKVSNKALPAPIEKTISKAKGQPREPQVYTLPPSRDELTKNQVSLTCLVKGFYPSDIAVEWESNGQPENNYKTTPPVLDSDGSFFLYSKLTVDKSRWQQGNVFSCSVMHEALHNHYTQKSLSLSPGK

B1: mouse 6H3.m1 (mouse IgG1) (antibody, V domains shown)
VH: EVQLQQSGPVLVKPGTSVKMSCKASGYTFTDYYMNWVKQSHGKSLEWIGVINPYNGDTTYNQKFKGKATLTVDKSSSTAYMEVNSLTFEDSAVYYCARYPESTYWGQGTLVTVSA
VL: DVVMTQTPLSLPVSLGDQASISCRSSQSLVHINGNTYLHWYLQKPGQSPKVLIYKVSNRFSGVPDRFSGSGSGTDFTLKISRVEAEDLGVYFCSQSTHVPLTFGAGTKLELK
notes: 6H3 as mouse IgG1; also called 6H3.mIgG1
As for B1, in the assay with B7-H4-Ig fusion protein [1], the EC50 (read off the curve) (usually the concentration that produces a half-maximal response) is around 10 ng/mL.

B2: murine anti-human B7-H4 antibody 6H3 (antibody, V domains shown)
VH: B1 VH
VL: B1 VL
notes: Mouse monoclonal antibody; also called clone 6H3; mouse anti-human B7-H4 6H3
B2: the binding result in assay [2], in assay [3] and in assay [4] was “no binding (tested: 16 ng/ml)” throughout. Also, the concentration for a half-maximal effect (EC50 (read off the curve)) was around 10 ng/mL with B7-H4-Ig fusion protein [5] and around 6 nM in assay [6].
